Data published in patent US20250282833A1.

Columns and labels:
[1] = biological target: Anc80 AAV capsid viral protein VP1
[2] = biological target: AdV5 pVIII (human adenovirus C serotype 5) (UniProt P24936)
[3] = biological target: T1, AdV5 pVII (human adenovirus C serotype 5) (UniProt P68951)
T1 sequence (chain, acetylation at S2 (100.0%)): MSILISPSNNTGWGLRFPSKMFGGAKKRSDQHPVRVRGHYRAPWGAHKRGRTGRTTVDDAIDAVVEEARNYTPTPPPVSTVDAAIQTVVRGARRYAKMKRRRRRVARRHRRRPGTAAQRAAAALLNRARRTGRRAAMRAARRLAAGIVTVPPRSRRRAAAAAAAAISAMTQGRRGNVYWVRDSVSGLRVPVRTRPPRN

[4] = biological target: AdV5 Penton base (human adenovirus C serotype 5) (UniProt P12538)
[5] = biological target: AdV5 pIX (human adenovirus C serotype 5) (UniProt P03281)
[6] = biological target: AdV5 Fiber (human adenovirus C serotype 5) (UniProt P11818)
[7] = biological target: T2, AdV5 pV (human adenovirus C serotype 5) (UniProt P24938)
T2 sequence: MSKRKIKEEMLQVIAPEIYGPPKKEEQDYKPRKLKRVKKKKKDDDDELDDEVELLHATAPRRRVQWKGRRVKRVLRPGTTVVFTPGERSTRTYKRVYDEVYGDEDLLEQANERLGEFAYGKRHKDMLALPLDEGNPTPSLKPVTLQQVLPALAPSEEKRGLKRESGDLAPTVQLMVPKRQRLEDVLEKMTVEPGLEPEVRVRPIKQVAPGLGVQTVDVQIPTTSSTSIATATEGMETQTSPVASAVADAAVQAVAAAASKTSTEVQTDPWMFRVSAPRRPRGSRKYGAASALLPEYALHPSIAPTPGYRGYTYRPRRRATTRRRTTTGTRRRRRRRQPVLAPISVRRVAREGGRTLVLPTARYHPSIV

[8] = biological target: T3, AdV5 pIIIa (human adenovirus C serotype 5) (UniProt P12537)
T3 sequence: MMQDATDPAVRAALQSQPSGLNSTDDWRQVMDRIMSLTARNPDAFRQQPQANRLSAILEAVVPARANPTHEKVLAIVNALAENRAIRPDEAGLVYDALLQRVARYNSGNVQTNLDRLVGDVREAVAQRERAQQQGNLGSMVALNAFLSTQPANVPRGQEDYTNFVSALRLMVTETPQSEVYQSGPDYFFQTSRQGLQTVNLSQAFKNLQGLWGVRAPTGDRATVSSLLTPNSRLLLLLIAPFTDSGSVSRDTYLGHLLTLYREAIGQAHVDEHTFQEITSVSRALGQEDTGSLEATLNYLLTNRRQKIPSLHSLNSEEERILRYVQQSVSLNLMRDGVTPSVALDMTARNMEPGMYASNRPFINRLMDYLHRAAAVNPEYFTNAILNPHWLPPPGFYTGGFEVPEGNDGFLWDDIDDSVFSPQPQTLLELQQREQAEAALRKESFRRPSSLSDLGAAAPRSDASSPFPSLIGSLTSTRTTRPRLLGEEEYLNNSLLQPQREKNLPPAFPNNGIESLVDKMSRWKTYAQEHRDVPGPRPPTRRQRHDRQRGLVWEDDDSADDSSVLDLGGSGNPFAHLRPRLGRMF

[9] = biological target: T4, AdV5 pIVa2 (human adenovirus C serotype 5) (UniProt P03271)
T4 sequence: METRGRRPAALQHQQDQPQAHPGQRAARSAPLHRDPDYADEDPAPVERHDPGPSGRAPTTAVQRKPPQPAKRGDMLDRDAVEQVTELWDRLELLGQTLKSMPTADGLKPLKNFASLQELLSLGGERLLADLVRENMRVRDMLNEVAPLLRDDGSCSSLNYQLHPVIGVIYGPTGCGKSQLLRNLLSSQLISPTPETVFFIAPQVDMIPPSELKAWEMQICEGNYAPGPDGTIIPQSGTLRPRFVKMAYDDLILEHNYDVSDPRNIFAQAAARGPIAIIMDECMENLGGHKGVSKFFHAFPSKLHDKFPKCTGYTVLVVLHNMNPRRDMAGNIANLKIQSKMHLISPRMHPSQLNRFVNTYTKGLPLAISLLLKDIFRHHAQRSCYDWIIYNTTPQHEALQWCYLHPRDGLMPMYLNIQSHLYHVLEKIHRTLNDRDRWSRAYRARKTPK

[10] = biological target: AdV5 AVP (human adenovirus C serotype 5) (UniProt P03253)
[11] = biological target: AdV5 pTP (human adenovirus C serotype 5) (UniProt P04499)
[12] = biological target: T5, AdV5 pµ (human adenovirus C serotype 5) (UniProt Q2KS10)
T5 sequence: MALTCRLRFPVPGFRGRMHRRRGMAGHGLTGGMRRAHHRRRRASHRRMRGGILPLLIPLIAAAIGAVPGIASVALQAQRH

[13] = biological target: AdV5 pVI (human adenovirus C serotype 5) (UniProt P24937)
[14] = biological target: AdV5 Hexon (human adenovirus C serotype 5) (UniProt P04133)

Sequencing grade trypsin, sequence (P00761 9-231 limits assumed): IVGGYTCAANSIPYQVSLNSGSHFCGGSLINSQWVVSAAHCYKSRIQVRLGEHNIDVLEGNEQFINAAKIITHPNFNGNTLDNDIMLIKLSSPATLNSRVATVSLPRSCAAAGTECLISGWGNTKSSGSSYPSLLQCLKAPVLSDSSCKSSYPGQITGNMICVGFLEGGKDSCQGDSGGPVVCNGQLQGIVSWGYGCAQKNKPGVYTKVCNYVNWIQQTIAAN
AdV5 Penton base (human adenovirus C serotype 5), sequence (P12538 whole entry): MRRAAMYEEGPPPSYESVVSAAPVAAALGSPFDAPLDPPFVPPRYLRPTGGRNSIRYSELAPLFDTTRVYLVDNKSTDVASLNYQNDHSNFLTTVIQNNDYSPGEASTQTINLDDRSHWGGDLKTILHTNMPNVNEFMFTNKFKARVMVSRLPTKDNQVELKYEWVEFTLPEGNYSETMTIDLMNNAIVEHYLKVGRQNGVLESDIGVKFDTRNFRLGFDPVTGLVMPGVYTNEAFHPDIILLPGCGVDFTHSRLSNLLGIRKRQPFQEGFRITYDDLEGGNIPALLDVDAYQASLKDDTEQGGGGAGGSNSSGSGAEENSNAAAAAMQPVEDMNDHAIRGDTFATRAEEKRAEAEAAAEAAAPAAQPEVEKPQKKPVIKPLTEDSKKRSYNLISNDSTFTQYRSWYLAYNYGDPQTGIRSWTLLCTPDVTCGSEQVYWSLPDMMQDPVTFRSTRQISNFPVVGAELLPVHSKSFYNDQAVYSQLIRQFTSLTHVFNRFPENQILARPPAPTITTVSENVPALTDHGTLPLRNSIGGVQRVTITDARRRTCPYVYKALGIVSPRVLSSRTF

Substance	sequence coverage by LC-MS/MS after Asp-N digestion [1]	Sequence Coverage (%) by LC-MS/MS after trypsin digestion [2]	Sequence Coverage (%) by LC-MS/MS after trypsin digestion [3]	Sequence Coverage (%) by LC-MS/MS after trypsin digestion [4]	Sequence Coverage (%) by LC-MS/MS after trypsin digestion [5]	Sequence Coverage (%) by LC-MS/MS after trypsin digestion [6]	Sequence Coverage (%) by LC-MS/MS after trypsin digestion [7]	Sequence Coverage (%) by LC-MS/MS after trypsin digestion [8]	Sequence Coverage (%) by LC-MS/MS after trypsin digestion [9]	Sequence Coverage (%) by LC-MS/MS after trypsin digestion [10]	Sequence Coverage (%) by LC-MS/MS after trypsin digestion [11]	Sequence Coverage (%) by LC-MS/MS after trypsin digestion [12]	Sequence Coverage (%) by LC-MS/MS after trypsin digestion [13]	Sequence Coverage (%) by LC-MS/MS after trypsin digestion [14]
Asp-N protease (enzyme)	99.2%	–	–	–	–	–	–	–	–	–	–	–	–	–
Sequencing grade trypsin (from UniProt P00761) (enzyme)	–	93.8%	91.9%	98.9%	99.3%	89.2%	94.3%	99.1%	84.2%	91.7%	55.1%	92.5%	98.6%	91.4%
